This note sets out measurements from the DeepSol protein solubility set.

This series in a line: soluble on expression in E. coli; label from the status in PepcDB or PDB records.
For “NGESYNFALNSGYTKLSDNAEVKIAVDKIADLVSNMTVHLMENTEKGDIRIRDELSRKIDINPYSLMTRKTWIYNIVSNLLLYGDGNAIVLPEIKNGLISELKPLDPSLVDFDVRDDSYKIHYKNKTYNPDEVVHFAINPDSEYPFIGTGYRVALKSLVDNLNQATATKKAFMSSKFMPNLIVKVDANAAELSSEKGKNKIEDMYLQRTEEGKPWIIPADLIEIEQVKPLSLNDIAINEAVNIDKKTVAGLLGVPAFFVGVGEFDKNEFNNFINTRIMSIAMIISQTLTRDLLISPTRFFKLNPRSLYSYDITELVAAGGQMVDRIAMDRNELRDWIG”, the “soluble on expression in E. coli” value is on record as “not soluble”.

For “MSLKPNYLEERICLNVLANSVENAQACYEAAEGHVVLGVLSKNYETDEAAIDDMKKYQAATNNALSVGLGAGDPNQSQMVARLSEVLQPQHVNQVFTGVGASRALLRQDETVINGLVSPTGKVGYVNIATGPLSSGAPAAEVPIETAIKLLKDMGGSSIKYFPMKGLAHKEEYQAVAAACAKYDFYLEPTGGIDLENFEEIVQIAVDAGVKKIIPHVYSSIIDQETGDTRTEDVKTLLTMMKKTLNK”, the “soluble on expression in E. coli” value is on record as “not soluble”.

“AHHHHHHGSRYFFYPNSVAIFGSFREGAIAREILRNIVEGGFEGKIIPVNPKGGEVEVAGKKFNIKEKLDEPVDVSIIAIPAKLVPELIRGLKGLTKGAVVISAGFSEVGNVELEKELIKAAKEAGIRVIGPNCAGIFGVHAKFYGSFEVRVNPGGLALISQSGAFGGAALAMGNEEGIGFSAFVSYGNAADLDESDFLRFFADDENTRVIGLYIEGVKDGRKFLDALRYAASKKPVIILKAGKSRAGARAAASHTGSLAGSYEIYRAAFRQAGAIEVEEMEELFDAAKAFEMYERAGRRVAIITNSGGPGVLATDKLERLGLEIAKLTEETVEELRSFLPPQCSVKNPVDLIADADYERYKRAIEVVCRDENVDAILVICVPPIFIPSEEIARAVVEANCDKPIIVNFMAGELVREGIKILESKKIKNFPTPERAAKALYWLSLRSSSE”: the “soluble on expression in E. coli” value is on record as “soluble”.

Regarding “DVGSAIDAAHQAFLRYQQCPLKTRSAIISALRETLAPELATLAEESATETGMGNKEDKYLKNKAALENTPGIEDLTTSALTGDGGMVLFEYSPFGVIGAVAPSTNPTETIINNSISMLAAGNSVYFSPHPGAKKVSLKLIARIEEIAYRCSGIRNLVVTVAEPTFEATQQMMSHPLIAVLAITGGPGIVAMGMKSGKKVIGAGAGNPPCIVDETADLVKAAEDIISG”, the “soluble on expression in E. coli” value is “not soluble”.

As for “MEEPMEVDNKRPKVLTWTEKYRPKTLDDIAYQDEVVTMLKGALQGRDLPHLLFYGPPGTGKTSAALAFCRQLFPKNIFHDRVLDLNASDERGIAVVRQKIQSFSKSSLGHSHREDVLKLKIIILDEVDAMTREAQAAMRRVIEDFSKTTRFILICNYVSRLIPPVVSRCAKFRFKSLPAEIQVQRLRTICDAEGTPMSDDELKQVMEYSEGDLRRAVCTLQSLAPILKSGDDNARNCYLRGSSDSLLISNVCKSILTADVPQIIALTKDITKSCTGVAFIRRCFQQLMDEDVINDENIGVMGKLVATCEKRILDGCDLENNLLDFLLTLRETIQ”, the “soluble on expression in E. coli” value is “not soluble”.

With “MHHHHMITLENPDIKYPLRLIDKEILSHDTRRFRFALPSPQHILGLPIGQHIYLSTRIDGNLVIRPYTPVSSDDDKGFVDLVVKVYFKETHPKFPAGGKMPQYLENMNIGDTIEFRGPNGLLVYQGKGKFAIRADKKSNPVVRTVKSVGMIAGGTGITPMLQVIRAVLKDPNDHTVCYLLFANQSEKDILLRPELEELRNEHSSRFKLWYTVDKAPDAWDYSQGFVNEEMIRDHLPPPGEETLILMCGPPPMIQFACLPNLERVGHPKERCFTF”, the “soluble on expression in E. coli” value is given as “soluble”.

Turning to “PKTVQDLTSVVQTLLQQMQDKFQTISDQIIGRIDDMSSRIDDLEKNIA”, the “soluble on expression in E. coli” value is “soluble”.

“MALDITDESEIYNLDSLVSYSQGGCKAEHDWRIGTEHEKFPFYRGDFRPVPYEGSRGIRALLEGMQKALGWEPILDEGNIIGLVGSVGQGAISLEPGGQFELSGALLKTIGDTYCEVIEHLALLKKISEPLGIGFLGIGASPKWTLTETPRMPKSRYRIMANYMPKVGHSGLDMMYRTSTVQVNLDFSSETDMRRKMQVSMKLQSIATALFASSPFTEGRPNGFLSWRSEIWCDTDNQRTGVLPFIFSERFGFADYVEWALDVPMYFVVRDGRYYDCTHITFRQFMNGALRGQVANATPNMGDWINHLSTLFPEVRLKRFLEMRGADCGSLKRICALSAFWVGILYDSEALNEAEALTKDWCFEEVLDMRKRVPKEGLKTPFRQTIILEIARQAVAISHKGLKNRRQYASNGLDETSFLAPLEEVIAMGQTDADKFLSLYHSIWDKSVEPVFLECVY”: the “soluble on expression in E. coli” value is “not soluble”.

With “MDTLQFQKNPETAAKMSAYMKHQFVFAGIPAPERQALSKQLLKESHTWPKEKLCQEIEAYYQKTEREYQYVAIDLALQNVQRFSLEEVVAFKAYVPQKAWWDSVDAWRKFFGSWVALHLTELPTIFALFYGAENFWNRRVALNLQLMLKEKTNQDLLKKAIIYDRTTEEFFIQKAIGWSLRQYSKTNPQWVEELMKELVLSPLAQREGSKYLAKASE”, the “soluble on expression in E. coli” value is given as “soluble”.

As to “MEEPSELGASKEKPIELNEDDESSDGENSVIILDSDTEPEDGAGGEEDEDNGEDSEEEDEEDSDEEESEDDSDSSVDTESVNSVWSNVDEENGEEITTEAAEAKIIKKFEKAIFSIADNDSETGRRILEKLLNDAIIATYNQENPDFELLDEPPRLAKMLQVFIASHRNLAKLCEKEVENADEKEKEQLKSEEIQHLCQVLAYEPNSSDIWLDVALKSIEFGDLNFSKYAFKRCETLKESLESHATLLYLTCDYNESLMIMKQFQEQNDVLNDKLKYLKHKIRSTNQYYKLSCDRIFEEDEVYADVQSVEKRKIQDFDERIEALRSRVVGKIEQRDVDFRDEEEKCSVIPIRIEADQE”, the “soluble on expression in E. coli” value is listed as “not soluble”.

On to “MGSDKIHHHHHHLAGERENWFVSIPPRRGSVLDVRGRKIVYDSPEYVAYLDVDFFKRQNGDIKALEKTLQNCGITKSAEEVMEYKFFKLTEGEDKVDVLKKIESELLPFVNIELVYTRKKIQDYATGILLGTVIDGTGKGGIEGFFDDQLQGKRKGFLELRYRGARLSPTLVNYSPPENGKDVWLSLDLDLQRRVYDIISKAVEGNSAEAGHVIVMESKTGRILSMVTTRNWNDLIGGYIEPGSTIKPLVYAIALETHSASPDFTVECEGSIKPVEQLPVIIRDIEKHGLVDFSAGIVKSCNVMSVKVGELITEKTGVEGFYEWLRKVGFGEKTGIEMEGEIAGVLREPKKWSLIDPAEISIGQGIGVTPVQLIASLNIFANDGYWVKPTILKDSPVKKRRVFSKETTDVIRQAMVRVVEEGTGKLAQVKGIAIAGKTGTAQKAVGGEYRNLYHSLFVGFFPAEDPKYTILVHLDSPSGAFYGGEVAAPVFREIVEILTEKEDGRIRIVKGLMPDLRGLPVRDALLVLESLGVKDVEIKGKGWKVSEQTPPPNHPLEGPVILFLSDQK”, for which the “soluble on expression in E. coli” value is recorded as “not soluble”.

With “MGSDKIHHHHHHMTLSDPRFISLNQWLNCYFSDDVTPILISGDASFRRYFRVFAHDTSYIIADSPPALVPIAPFIALSSAYAAAGLTVPKVIASDADQGFMLLSDLGDTQLLSVLTDDNVADYYCRALALLPQVATVVESQDPVSGITQPLPLYDEAFVRRELGIFTEWLLARHLQLELGDEERTLVDESFDLLVKNALAQPKVGMHRDFHSRNLMLKDGGLCVIDFQDAVLGPVTYDAVSLLRDCYIRWPQAMVLELIQQHYQQVLESGHLPEGTSFRQYQSWFDLMGLQRHIKAAGIFARLYYRDNKPAYMADIPLTLAYIVDIARMYPELAPFAAWVESRVIPAFNLPLKQQDKQPGSSR”, the “soluble on expression in E. coli” value was “not soluble”.

Regarding “MQNLRRAVFAGLVAGTLSEGAAATAGDGGFVEDSELQFLARTYYFNRDYRDSPNNAGRNRFKPRSERNGYREEATQGLRLQFASGYTPGSLGFGLDAHAMLGLQLDSGGGRTGTGNLPVGADGHPDHRYGKVGGALRLRHGETRLKYGQTTTSAPVFAASSNRTLAGMAYGLLLEDRSFDGLLLEGGRFTAASGPGESKVRGDISTVYGRLGAYPVRLDAVGFLGGQWQATERLQLSLYASRFDDIWQQAYFGASHRQPLGGERALRVDLDAYRTRDSGQSRFGRIDTLTSSLALGYEHGPQRITLAYQRVHGEQPFDYMAFGDGRSSASMVLANSVGYSDFNGPGERSWQLRYDLDLGALGLPGLSLHALHARGRAGASASSAAESIYAGLYGRDGRHRENDLGFAYRVKAGPLAGLALRASQAWHRGNASYLDGDIDETRLVVDYSRSIW”, the “soluble on expression in E. coli” value is given as “not soluble”.
